Measured values as given in FireProtDB (doi:10.1021/bi00021a022).

Conditions: Saccharomyces cerevisiae (strain ATCC 204508 / S288c), reversible: yes
[1] = pH 3.5, 27 °C, Thermal, DSC, Potassium acetate 50 mM, structure 1YCC
[2] = pH 3.5, Thermal, DSC, Potassium acetate 50 mM, structure 1YCC
[3] = pH 4, 27 °C, Thermal, DSC, Potassium acetate 50 mM, structure 1YCC
[4] = pH 4, Thermal, DSC, Potassium acetate 50 mM, structure 1YCC
[5] = pH 4.6, 27 °C, Thermal, DSC, Potassium acetate 50 mM, structure 1YCC
[6] = pH 4.6, Thermal, DSC, Potassium acetate 50 mM, structure 1YCC
[7] = pH 5, 27 °C, Thermal, DSC, Potassium acetate 50 mM, structure 1YCC
[8] = pH 5, Thermal, DSC, Potassium acetate 50 mM, structure 1YCC
[9] = pH 7, 22 °C, GdnHCl, Fluorescence, Potassium phosphate 0.1 M, structure 1YCC
[10] = pH 3.5, Thermal, DSC, Potassium acetate 50 mM
[11] = pH 4, Thermal, DSC, Potassium acetate 50 mM
[12] = pH 4.6, Thermal, DSC, Potassium acetate 50 mM
[13] = pH 5, Thermal, DSC, Potassium acetate 50 mM
[14] = pH 7, 22 °C, GdnHCl, Fluorescence, Potassium phosphate 0.1 M

Sequence of Cytochrome c isoform 1 N58V, P00044 (P00044 whole entry N58V, canonical isoform): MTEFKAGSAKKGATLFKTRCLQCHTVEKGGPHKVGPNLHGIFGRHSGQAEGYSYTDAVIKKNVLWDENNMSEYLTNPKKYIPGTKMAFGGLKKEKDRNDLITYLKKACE
Sequence of Cytochrome c isoform 1 N58A, P00044 (P00044 whole entry N58A, canonical isoform): as the sequence (P00044 whole entry N58V, canonical isoform) above, with V58A counted along it
Sequence of Cytochrome c isoform 1 N58T, P00044 (P00044 whole entry N58T, canonical isoform): as the sequence (P00044 whole entry N58V, canonical isoform) above, with V58T counted along it
Sequence of Cytochrome c isoform 1 N58Q, P00044 (P00044 whole entry N58Q, canonical isoform): as the sequence (P00044 whole entry N58V, canonical isoform) above, with V58Q counted along it
Sequence of Cytochrome c isoform 1 N58S, P00044 (P00044 whole entry N58S, canonical isoform): as the sequence (P00044 whole entry N58V, canonical isoform) above, with V58S counted along it
Sequence of Cytochrome c isoform 1 N58M, P00044 (P00044 whole entry N58M, canonical isoform): as the sequence (P00044 whole entry N58V, canonical isoform) above, with V58M counted along it
Sequence of Cytochrome c isoform 1 wild type, P00044 (P00044 whole entry, canonical isoform): as the sequence (P00044 whole entry N58V, canonical isoform) above, with V58N counted along it
Sequence of Cytochrome c isoform 1 N58I, P00044 (P00044 whole entry N58I, canonical isoform): as the sequence (P00044 whole entry N58V, canonical isoform) above, with V58I counted along it
Sequence of Cytochrome c isoform 1 N58H, P00044 (P00044 whole entry N58H, canonical isoform): as the sequence (P00044 whole entry N58V, canonical isoform) above, with V58H counted along it

Row | Substance | ddG of mutation (higher = less stable) [3] | unfolding free energy [3] | Tm [4] | change of melting temperature, mutant - wild type (higher = more stable) [4] | unfolding enthalpy (calorimetric) [4] | ddG of mutation (higher = less stable) [5] | unfolding free energy [5] | Tm [6] | change of melting temperature, mutant - wild type (higher = more stable) [6] | unfolding enthalpy (calorimetric) [6] | ddG of mutation (higher = less stable) [7] | unfolding free energy [7] | Tm [8] | change of melting temperature, mutant - wild type (higher = more stable) [8] | unfolding enthalpy (calorimetric) [8] | ddG of mutation (higher = less stable) [9] | denaturant midpoint (higher = more stable) [9] | unfolding free energy [9] | also measured
1 | Cytochrome c isoform 1 N58T, P00044 | -1.01 kcal/mol | 3.53 kcal/mol | 49.2 °C | 3.8 °C | 75.3 kcal/mol | -0.59 kcal/mol | 4.62 kcal/mol | 54.5 °C | 5.3 °C | 82.9 kcal/mol | 0.53 kcal/mol | 5.09 kcal/mol | 55.3 °C | -8 °C | 88.6 kcal/mol | -1.9 kcal/mol | 1.58 M | 7.76 kcal/mol | ddG of mutation (higher = less stable) [1]: -0.98 kcal/mol; unfolding free energy [1]: 2.62 kcal/mol; Tm [2]: 45.4 °C; change of melting temperature, mutant - wild type (higher = more stable) [2]: 5.3 °C; unfolding enthalpy (calorimetric) [2]: 63.4 kcal/mol
2 | Cytochrome c isoform 1 N58I, P00044 | -3.03 kcal/mol | 5.55 kcal/mol |  |  |  |  |  | 62.2 °C | 13 °C | 101 kcal/mol | -2.02 kcal/mol | 7.64 kcal/mol | 64.2 °C | 0.9 °C | 108 kcal/mol | -4.1 kcal/mol | 2.09 M | 9.96 kcal/mol | ddG of mutation (higher = less stable) [1]: -2.62 kcal/mol; unfolding free energy [1]: 4.26 kcal/mol; Tm [2]: 52.4 °C; change of melting temperature, mutant - wild type (higher = more stable) [2]: 12.3 °C; unfolding enthalpy (calorimetric) [2]: 80.7 kcal/mol
3 | Cytochrome c isoform 1 wild type, P00044 |  |  |  |  |  |  |  |  |  |  |  |  |  |  |  |  |  |  | unfolding free energy (pH 3.5, 27 °C, Thermal, DSC, Potassium acetate 50 mM): 1.64 kcal/mol; Tm [10]: 40.1 °C; unfolding enthalpy (calorimetric) [10]: 55.3 kcal/mol; unfolding free energy (pH 4, 27 °C, Thermal, DSC, Potassium acetate 50 mM): 2.52 kcal/mol; Tm [11]: 45.4 °C; unfolding enthalpy (calorimetric) [11]: 64.2 kcal/mol; unfolding free energy (pH 4.6, 27 °C, Thermal, DSC, Potassium acetate 50 mM): 4.03 kcal/mol; Tm [12]: 49.2 °C; unfolding enthalpy (calorimetric) [12]: 78.8 kcal/mol; unfolding free energy (pH 5, 27 °C, Thermal, DSC, Potassium acetate 50 mM): 5.62 kcal/mol; Tm [13]: 63.3 °C; unfolding enthalpy (calorimetric) [13]: 107 kcal/mol; denaturant midpoint (higher = more stable) [14]: 1.34 M; unfolding free energy [14]: 5.86 kcal/mol
4 | Cytochrome c isoform 1 N58Q, P00044 |  |  |  |  |  |  | 3.95 kcal/mol | 51.2 °C | 2 °C | 78.7 kcal/mol |  |  |  |  |  |  | 1.39 M | 5.02 kcal/mol | 
5 | Cytochrome c isoform 1 N58H, P00044 |  |  |  |  |  | 1.27 kcal/mol | 2.76 kcal/mol | 47.5 °C | -1.7 °C | 64.1 kcal/mol |  |  |  |  |  | 1.7 kcal/mol | 1.41 M | 4.16 kcal/mol | 
6 | Cytochrome c isoform 1 N58S, P00044 | -0.74 kcal/mol | 3.26 kcal/mol | 46.7 °C | 1.3 °C | 70.8 kcal/mol | 0.05 kcal/mol | 3.98 kcal/mol | 51 °C | 1.8 °C | 78.7 kcal/mol | 1.29 kcal/mol | 4.33 kcal/mol | 52.6 °C | -10.7 °C | 83.2 kcal/mol |  |  |  | 
7 | Cytochrome c isoform 1 N58A, P00044 |  |  |  |  |  | -0.63 kcal/mol | 4.66 kcal/mol | 53.7 °C | 4.5 °C | 84 kcal/mol |  |  |  |  |  | -2.97 kcal/mol | 1.52 M | 8.83 kcal/mol | 
8 | Cytochrome c isoform 1 N58V, P00044 | -2.44 kcal/mol | 4.96 kcal/mol | 54.3 °C | 8.9 °C | 86.5 kcal/mol | -1.67 kcal/mol | 5.7 kcal/mol | 58 °C | 8.8 °C | 92.4 kcal/mol |  |  |  |  |  | -2.02 kcal/mol | 1.77 M | 7.88 kcal/mol | 
9 | Cytochrome c isoform 1 N58L, P00044 |  |  |  |  |  | -2.56 kcal/mol | 6.59 kcal/mol | 62.1 °C | 12.9 °C | 97.4 kcal/mol |  |  |  |  |  | -4.73 kcal/mol | 2.17 M | 10.6 kcal/mol | 
10 | Cytochrome c isoform 1 N58M, P00044 | -2.91 kcal/mol | 5.43 kcal/mol | 58.9 °C | 13.5 °C | 89 kcal/mol | -2.25 kcal/mol | 6.28 kcal/mol | 62.6 °C | 13.4 °C | 96 kcal/mol |  |  |  |  |  | -4.04 kcal/mol | 2.14 M | 9.9 kcal/mol | 
